From US20100221798

Molecular target: octadecenoyl-ACP

B1: Synechococcus elongatus PCC7942 orf1594 protein (YP-400611; Synpcc7942-1594; acyl-ACP reductase) with C-terminal His-tag (protein)
chain: MFGLIGHLTSLEQARDVSRRMGYDEYADQGLEFWSSAPPQIVDEITVTSATGKVIHGRYIESCFLPEMLAARRFKTATRKVLNAMSHAQKHGIDISALGGFTSIIFENFDLASLRQVRDTTLEFERFTTGNTHTAYVICRQVEAAAKTLGIDITQATVAVVGATGDIGSAVCRWLDLKLGVGDLILTARNQERLDNLQAELGRGKILPLEAALPEADFIVWVASMPQGVVIDPATLKQPCVLIDGGYPKNLGSKVQGEGIYVLNGGVVEHCFDIDWQIMSAAEMARPERQMFACFAEAMLLEFEGWHTNFSWGRNQITIEKMEAIGEASVRHGFQPLALAI
- Km for the reduction of octadecenoyl-ACP in the presence of 2 mM NADPH (in vitro reductase assay, aldehyde formed measured by GC/MS): 7.8 ± 2 µM
